# T1: human CD303 antigen expressed on cells (human, UniProt Q8WTT0 1-213)
# T1 construct: On Fcγ chain-CD303 Jurkat cells, CAL-1 cells, and CAL-1 cells transfected with a CD303 expression vector; also called BDCA-2; BDCA2
# T1 sequence: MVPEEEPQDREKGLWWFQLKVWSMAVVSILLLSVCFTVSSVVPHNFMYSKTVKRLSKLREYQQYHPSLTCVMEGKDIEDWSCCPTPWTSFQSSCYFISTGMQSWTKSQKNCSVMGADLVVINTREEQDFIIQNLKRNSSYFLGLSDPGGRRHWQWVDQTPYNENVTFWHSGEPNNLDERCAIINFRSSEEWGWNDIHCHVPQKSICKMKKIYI
# How the values were obtained:
# [1] = target: T1, human CD303 antigen expressed on cells; test: flow cytometry on CAL-1 cells transfected with CD303 (about 40,000-50,000 CD303/cell)
# Procedure: (§1) The CD303-expressing cells and the antibodies are prepared in diluent (PBS+1% FCS). 1·10⁵ cells are incubated at 4° C. for 30 minutes with 100 μL of antibody (anti-CD303 or negative control) at various concentrations (0-40 μg/mL, final concentration).
# (§2) After washing with the diluent, the antibodies are visualized by addition of a phycoerythrin (PE)-coupled goat anti-mouse IgG F(ab′)₂ fragment (100 μL diluted to 1:100 in the diluent) for 45 minutes at 4° C. The cells are then washed and analyzed by flow cytometry (FC500, Beckman Coulter).
# FcγRIIIa (CD16a) [2] = target: T2, FcγRIIIa (CD16a) (UniProt P08637 17-254, limits assumed); test: competition with 3G8-PE for CD16 on NK cells, flow cytometry (second experiment)
# T2 construct: whole, on cells; also called Fcγ receptor III
# [3] = target: T1, human CD303 antigen expressed on cells; test: flow cytometry on CAL-1 cells (experiment with BIIB059)
# Procedure: as §1, §2
# [4] = target: T1, human CD303 antigen expressed on cells; test: cell-based or functional assay
# [5] = target: T1, human CD303 antigen expressed on cells; test: cell-based or functional assay; remark: listed apart in the source
# [6] = target: T1, human CD303 antigen expressed on cells; test: flow cytometry on Fcγ chain-CD303 Jurkat cells
# Procedure: as §1, §2
# FcγRIIIa (CD16a) [7] = target: T2, FcγRIIIa (CD16a); test: competition with 3G8-PE for CD16 on NK cells, flow cytometry
# [8] = target: T1, human CD303 antigen expressed on cells; test: flow cytometry on CAL-1 cells
# Procedure: as §1, §2
# [9] = target: T1, human CD303 antigen expressed on cells; test: cell-based or functional assay; remark: listed apart in the source
# T2 sequence (P08637 17-254 limits assumed): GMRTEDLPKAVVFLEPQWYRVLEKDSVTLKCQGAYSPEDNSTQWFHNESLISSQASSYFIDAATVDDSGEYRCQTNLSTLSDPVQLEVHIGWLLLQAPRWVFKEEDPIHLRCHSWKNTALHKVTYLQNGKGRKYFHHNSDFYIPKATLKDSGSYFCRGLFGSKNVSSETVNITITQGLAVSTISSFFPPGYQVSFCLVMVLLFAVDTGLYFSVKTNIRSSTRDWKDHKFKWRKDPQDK
Binder,EC50 [1] [mg/L],IC50 (FcγRIIIa (CD16a) [2]) [mg/L],EC50 [3] [mg/L],"ADCC EC50, Fcγ chain-CD303 Jurkat target cells with NK cells [4] [mg/L]","ADCC Emax (% lysis), Fcγ chain-CD303 Jurkat target cells with NK cells [4] [% lysis]","ADCC EC50, CAL-1 target cells [5] [mg/L]",Bmax (MFI) [6] [MFI],EC50 [6] [mg/L],IC50 (FcγRIIIa (CD16a) [7]) [mg/L],Bmax (MFI) [8] [MFI],EC50 [8] [mg/L],IC50 for IFN-α secretion from pDCs contained in PBMCs [9] [ng/mL]
"chimeric antibody 102E9 (antibody, human IgG1, kappa, also called ch.102E9) heavy: not shown light: QIVLTQSPAIMSASPGEKVTITCSASSSVIYIHWFQQKPGTSPKLWIYSTSYLASGVPARFSGSGSGTSYSLTISRMEAEDAATYYCQQRRSYPFTFGGGTKLEIKRTVAAPSVFIFPPSDEQLKSGTASVVCLLNNFYPREAKVQWKVDNALQSGNSQESVTEQDSKDSTYSLSSTLTLSKADYEKHKVYACEVTHQGLSSPVTKSFNRGEC",0.363,13,0.44,0.00342,38.9,0.0038,24.9,3.87,37,30.5,1.81,–
"chimeric antibody 122A2 (antibody, human IgG1, kappa, also called ch.122A2; ch122A2) heavy: not shown light: DIQMTQTTSSLSASLGDRVTISCRASQDISNYLNWYQQKPDGTVKLLIYYTSRLHSGVPSRFSGSGSGTDYSLTISNLDQEDIATYFCQQGNTLPWTFGGGTKLEIKRTVAAPSVFIFPPSDEQLKSGTASVVCLLNNFYPREAKVQWKVDNALQSGNSQESVTEQDSKDSTYSLSSTLTLSKADYEKHKVYACEVTHQGLSSPVTKSFNRGEC",0.142,13,0.06,0.000159,42.4,0.00093,26.2,0.128,40.4,25.2,0.207,0.959

# From US20200277385A1 (LABORATOIRE FRANCAIS DU FRACTIONNEMENT ET DES …, published 2020)
